Test results as given in the DeepSol protein solubility set.

Experiment: soluble on expression in E. coli; label from the status in PepcDB or PDB records
With “MKTFPLQSLTLAEAQQKQFALVDTICRHFPGSEFLAGGDLGLTPSLNQPRITQRVEQVLADAFHAQAAALVQGAGTGAIRAGLAALLKPGQRLLVHDAPVYPTTRVIIEQMGLTLITADFNDLSALKQVVDEQQPDAALVQHTRQQPQDSYVLADVLATLRAAGVPALTDDNYAVMKVARIGCECGANVSTFSCFKLFGPEGVGAVVGDADVISRIRATLYSGGSQIQGSQALEVLRGLVFAPLIHAVKAGVSERLLALLNGGAVAEVKSAVIANAQSKVLIVEFHQLIAARVLEEAQKRGALPYPVGAESKYEIPPLFYRLSGTFRQANPQLEHCAIRINPNRSGEETVLRILRESIASI” the “soluble on expression in E. coli” value was “not soluble”.
In the case of “MGSDKIHHHHHHMSTIGSDLYNSLGLTTSSKVAKKEDALGQADFLKLMTEQLQHQDPLKPMENSAFLGQLAQFSTVQGIGDLNTKVGNFSDSMNSDQVLKGAALVGHNVLVPSAQVAIDATGSAKGVVAATSAGFVNFEITDANGTFVKQLSVPASAAGEVSFAWDGTDANGNRMAAGKYGITATQTDTAGAKSKLATYVDAPVDSVTIGSDGLYLNLTGLGTSPLANVLRVS”, the “soluble on expression in E. coli” value is reported as “not soluble”.
With “MSLSNFKSISLTYRKAPLEIRERVALNEAECKSLMLRIKDFTDTAELLILSTCNRTEIYYTSNEDYSNDIIKLLGVEKNITGLIQQKEYFEIYNEQADAVLHLFEVGIGLDSQVVGDMQIVNQVKYAYQWSADLNLAGPFLHRLMHTIFFTNKRVVQETAFRDGAASVSYATVELSEELLSATPNANILIVGLGEIGADVCRNFKANTSFKNITLTNRSPLKSEALAAECGIEHVPFETLWEAVAKADLVISSVAKEEPLFTKEEIQKLSILSHKYFIDLSVPRSVDARAEELPGIIVYDIDHIQNRSNEALENRLNAIPHVRKIILDSIVEFNEWSKEMEVSPTINKLKNALEQIRKEELSRFVKQLSDEEAKKVDEITKSIMQKIIKLPVLQLKAACKRGEAETLIDVLNDLFNLDKQPEQIREGHHHHHH” the “soluble on expression in E. coli” value was “soluble”.
With “MGKEKSHINVVVIGHVDSGKSTTTGHLIYKCGGIDKRTIEKFEKEAAELGKGSFKYAWVLDKLKAERERGITIDIALWKFETPKYQVTVIDAPGHRDFIKNMITGTSQADCAILIIAGGVGEFEAGISKDGQTREHALLAFTLGVRQLIVAVNKMDSVKWDESRFQEIVKETSNFIKKVGYNPKTVPFVPISGWNGDNMIEATTNAPWYKGWEKETKAGVVKGKTLLEAIDAIEQPSRPTDKPLRLPLQDVYKIGGIGTVPVGRVETGVIKPGMVVTFAPAGVTTEVKSVEMHHEQLEQGVPGDNVGFNVKNVSVKEIRRGNVCGDAKNDPPKGCASFNATVIVLNHPGQISAGYSPVLDCHTAHIACRFDELLEKNDRRSGKKLEDHPKFLKSGDAALVKFVPSKPMCVEAFSEYPPLGRFAVRDMRQTVAVGVIKSVDKTEKAAKVTKAAQKAAKK” the “soluble on expression in E. coli” value was “soluble”.
With “MKQVAVISGKGGTGKTTFSATIHALEGGVVADCDVDAPNLHILLKPQILKAEDFIASKKARIMPEKCSSCGLCYDLCRFGAVVAEDGYYVDEKKCEGCAFCFNVCPERAIEMENVKTGDLYVSKTEWGYFVHARLKPGEENTGRLVTEVKNRAKEIAEESNAEFLIVDSAPGVGCPVMASLTGVDAAIIVTEPTVSGLSDMLRILELCEHFRIRPFVVVNKFDLNVNIASEIESYCSENGVEFAGRVPFDKAIPEQIANLNFPFSGKAADKMVEIWKKLREVLLEHHHHHH” the “soluble on expression in E. coli” value was “soluble”.
For “MGSDKIHHHHHHMNTDDILFSYGEEDIPLKALSFPIFETTNFYFDSFDEMSKALRNGDYEFVYKRGSNPTTRLVEKKLAALEECEDARLVASGMSAISLSILHFLSSGDHVVCVDEAYSWAKKFFNYLSKKFDIEVSYVPPDAERIVEAITKKTKLIYLESPTSMRMKVIDIRKVTEAAGELKIKTVIDNTWASPIFQKPKLLGVDVVVHSATKYISGHGDVMAGVIAGDVEDMKNIFVDEYKNIGPVLSPIEAWLILRGLRTLELRMKKHYENALVVSDFLMDHPKVLEVNYPMNPRSPQYELASSQMSGGSGLMSFRLKTDSAEKVKEFVESLRVFRMAVSWGSHENLVVPRVAYGDCPKKDVNLIRIHVGLGDPEKLVEDLDQALKKI”, the “soluble on expression in E. coli” value was “not soluble”.
With “MNKDIETQRFKQQKKWQKYYKFRGQFFLMKKYSKRMIFDRRIKMTTKEKIEFIKQVTPHSDSEVEKIIKGMSDTSINRWYEIEKYRIDQELEEAVLTIYC” the “soluble on expression in E. coli” value was “not soluble”.
With “MAGDPMIIYRQYHHEGAPVYEIITKTFQHVSIKCDDSFSDTEIFKLLSLLQDDIDHMKVSLEHHHHHH” the “soluble on expression in E. coli” value was “not soluble”.
For “MGSDKIHHHHHHMTQLLTKIRRKKIHKGLLLYRLFQQLPVQKNLVLFESFLGRGYSDNPKALYLTLQKQRPELELVWIFAKEPNAAVKAACPNWVLRNSPKYYYLMARAQYWIFNTRQPLSLKKRRETMYLQTWHGTPLKRLGLDMDEVHMPGTNTEQYKKNFSAQAKEWNYLLSPNLYSSAIFKRAFDFRGLLLETGYPRNDLLYAPDRQQQAGQIKQSLRLPPGKKVILYAPTWRDDEFVTKGQYRFNLKLDLKQIQSRLGDDYIVLLRMHYLIAEHLDLTAFDGFAYDVSAYGDIAELYLISDLLITDYSSVFFDYAHLNRPMLFFTYDLEKYASILRGFYFDFEAVVPGPLLKESDQVIDYIEDIATQSKQYEEKYTAFQERFCSLDDGKASQRVVDALFK”, the “soluble on expression in E. coli” value was “not soluble”.
In the case of “MTVGMSGFTRAGEAKAVPLALAERAKTNPMKITLMTGASLGNDLDKTMVEAGMLARRMPFQSDPALRKAINDGRVMFIDQHLSETVEQLRGGQIHGVDIAIVEAVAITAEGGIVPTTSVGNSASFAILADKVIVEINLSQPEVLEGLHDIFIPAKRPTRMPIPVVATDSRVGLPFIPVPPEKIAAIVLSDKSDSFSTVLPPDDETKAIAGHLTEFLLNEVRHGRMTHELQPLQAGIGTIANAVMHGFIDTPFHDLKMYSEVLQDSTFELFDAGKLTFASGSSITLSSAMNEQVMPRLSEYKSRLILRPQEVSNHPEVIRRLGIIGINTALEFDIYGNVNSTHVGGTHMMNGIGGSGDFARNAYMSIFVTKSIAKGGAISSVVPMVSHVDHTEHDVDILVTETGLADLRGLAPRERAAVIIANCVHPSYRDALTDYYQRAAARGGHTPHLIEEALSWHNALRERGTMLPQRLEHHHHHH”, the “soluble on expression in E. coli” value is reported as “not soluble”.
For “MSAPRLPVTVLTGFLGAGKTTLLSKLLENNKQRRLAILVNEFGEVSIDGGLLRDGENQGVEIHDLANGLVAYDDDADFLPTMLALWQRRQQIDHVLIETSGLALPSAVMAQLQSEALAPYFVLDATLAVVDTPLLLAGHFAPAGDGGKTDAVAALFDQQLGHADIVVLNKIDALSADQLLAAEEAVRKQAPSIRFIELAYEAKLDTRLTLGLHLHEASPAAHRHYGPVASMPGLAMRPLANQTLLDGHSHGGQAAHSHGLATHKHFHEQDPGWQSFMIRSKEPQCADKLAAALQAIAREEPLLRIKGFAACADSPGRLLAQGVRSRIELSRDDTLAAPRQAQLVFIGYHPSRPRVVALLRDITGAHWSLEHHHHHH”, the “soluble on expression in E. coli” value was “not soluble”.
With “MIGLFNDCFPPIMDGVSLTTQNYAYWLHRKAGNVCVVTPKSPDARDAEEYPVYRYSSVPIPMRKPYRLGFPRIDWPFHERISRLSFELVHAHCPFSSGALAMQIAREQHVPIVATFHSKYRADFERAIPSRLLVNYLIRKVIRFYEAADEVWIPQAAVEETLREYGYKGRIEVVDNGNDFAGTPFLQSVRQEARRTLGIRSGEFMFLFVGQHIWEKNLGFLLDSLVRLSDIPFRMYFVGSGYASHELKQKVVELGLASKVSFVGSIVEREILKRYYVAADLFLFPSLYDNAPLVIREAAALGTPSVLIRDSTASEIISDSVNGFLSPNSTEAYSNRIREILCSTAIIKQVGEEASRTIARSWEDVAGEVYDRYNRLIKRNGNKLEHHHHHH” the “soluble on expression in E. coli” value was “soluble”.
In the case of “MTYHLQGTTGYGLGDSGRETLDRVMARILGTEAALVRGQFVSGTHAIATALFGVLRPGDHFISVTGDPYDTLEEVIGIRGTGQGSLKDFGVSYDSVPLSEEGTIQHSLVSQGIKPNTKMLILQRSRGYAWRNSLPMEQIAAFVAYVREHFPHLIIFVDNCYGELVEKCEPGDVGADLMAGSLIKNLGGSLAPTGGYIAGRQELVEKAACRLTAPGIGGEVGATLSWQLQFFQGLFFSPLEHHHHHH”, the “soluble on expression in E. coli” value is reported as “not soluble”.
